Data taken from publication PMC4938799, “LD Motif Recognition by Talin: Structure of the Talin-DLC1 Complex” (Structure(London, England:1993), 2016).
Entries after “also recorded” stand apart in the source; their conditions may differ.

System: GFP-DLC1
Test: GST pull-down of GFP-DLC1 in A549 cells
Format: cell-based
Settings: A549 cell extracts, anti-DLC1 immunoblot, listed as wild-type GST-R8
Text: However, as talin R8 interacts with RIAM ([Goult et al., 2013b]) and paxillin (shown here) in addition to DLC1, we used several approaches to evaluate whether binding of talin R8 to endogenous RIAM or paxillin might have contributed to the observed results. For RIAM, the level of expression in the cell lines used here varied from very low to undetectable. To detect RIAM protein in any of the cell extracts, we had to use an anti-RIAM immunoprecipitation step followed by anti-RIAM immunoblotting. Using these conditions, endogenous RIAM was detected in A549 and H358 cells, but not in 293T cells (Figure S5A).
Figure S5, related to figure 6. […]
form a detectable complex with GST-talin R8.
(A) The expression of endogenous RIAM in cell lines. Cell extracts were subjected to immunoprecipitation followed by immunoblotting with anti-RIAM antibody.
(B) A complex between GST-talin R8 and endogenous RIAM is undetectable in A549 cells.
A549 cells were co-transfected with GFP-DLC1 and the GST constructs indicated. Cell extracts were subject to a glutathione bead pull down assay followed by immunoblotting with anti-GST and anti-RIAM antibodies on the same membrane (left). No complex between GST-talin R8 and RIAM could be detected. Under the same conditions, wild-type GST-R8 pulled-down the co-transfected GFP-DLC1; the immunoblot with anti-GST and anti-DLC1 on the same membrane is shown (right). […]

B1: GST-R8: GST-tagged talin R8, amino acids 1,453–1,580 (protein)
chain: NSQAGQQGLVEPTQFARANQAIQMACQSLGEPGCTQAQVLSAATIVAKHTSALCNSCRLASARTANPTAKRQFVQSAKEVANSTANLVKTIKALDGDFTEENRAQCRAATAPLLEAVDNLSAFASNPE
modifications: left off: GST, end not stated, kept
  binding of GFP-DLC1: pulled-down; also recorded: did bind GFP-DLC1
